Laboratory results taken from paper PMC5458078, “Global mapping of CARM1 substrates defines enzyme specificity and substrate recognition” (Nature Communications, 2017).

Tests used:
[1] = tested on: BAF155, MED12, PABP1, NCOA3 and TET2; test: Co-immunoprecipitation of BAF155, MED12, PABP1, NCOA3 and TET2 with FLAG-tagged CARM1, western blot; assay type: cell-based; conditions: FLAG-tagged construct transiently transfected in HEK293T CARM1 KO cells; anti-FLAG IP
Excerpt: The structure of the N-terminal domain of CARM1 (residues 28–140) resembles those of the EVH1 domains, a subfamily of PH domains that bind proline-rich sequences. With our discovery that CARM1 substrates contain proline-rich motifs, we posited that the protein's N-terminal domain may be required for substrate recognition. To test this hypothesis, we generated three CARM1 constructs: one full-length (CARM1 FL) and two N-terminal truncations CARM1 28–608 and CARM1 140–608 (Fig. 3a). […] We transiently transfected the three FLAG-tagged CARM1 fusion constructs in HEK293T CARM1 KO cells. CARM1 was immunoprecipitated from all three cell lines using anti-FLAG M2 resin, and four known CARM1 substrates/interactors (that is, BAF155 (ref. [20]), MED12 (ref. [30]), PABP1 (ref. [36]) and NCOA3 (ref. [19])) and newly identified TET2 were detected by western blotting. […] To globally assess the magnitude of reduction in CARM1–substrate interactions induced by the loss of the EVH1 domain, we visualized overall protein changes in CARM1 immunoprecipitates by western blotting using the ADMA antibody (Fig. 3c).
Cells were collected by trypsinization, washed with Dulbecco's phosphate buffer saline (Life Technologies, Carlsbad, CA) and lysed by suspension in lysis buffer (50 mM Tris-HCl pH 8.0, 150 mM NaCl, 10% glycerol, 0.5% Triton X-100 and 1 × protease inhibitor cocktail (Sigma-Aldrich)). After brief sonication followed by centrifugation, total protein was quantified using the BioRad Protein Assay (BioRad, Hercules, CA), and 20 μg protein was resolved by SDS–PAGE. Proteins were transferred to a nitrocellulose membrane for 1.5 h at 350 mA. Membranes were blocked with 5% nonfat milk at room temperature for 1 h and incubated overnight with diluted primary antibody at 4 °C. Membranes were then washed and incubated with HRP-conjugated secondary antibody for 1 h at room temperature. Signal was visualized by enhanced chemiluminescence reagents (Thermo Scientific, Rockford, IL) and X-ray film exposure followed by scanning and digitalization. […]

[2] = tested on: GST fused MED12, BAF155 and PABP1 peptides; test: In vitro methylation of GST fused peptides by recombinant CARM1 proteins, autoradiography; assay type: biochemical; conditions: 3H-SAM, 1–4 h, 30 °C; compared with CARM1 FL and CARM1 28–608
Protocol: The FL and N-terminal domain-deleted version of human CARM1 cDNAs, and other PRMT FL cDNAs were cloned into pFN21K Halo Tag CMV Flexi mammalian expression vector (Promega, Madison, WI) using the unique Sgfl and Pmel site[55]. To express the protein, DNA constructs were transiently transfected into HEK293T CARM1 KO cells in 15 cm dishes using transIT-LT1 reagent (Mirus Bio, Madison, WI) according to the manufacturer's protocol. Proteins were allowed to express for 48 h. Cell pellets were then collected and lysed in lysis buffer (50 mM HEPES, pH 7.5, 150 mM NaCl, 0.005% NP-40, 0.5 mM EDTA, supplemented with 1 × protease inhibitor cocktail before use). The cells were sonicated on ice using a Branson Sonifier 450 with a microtip at 35% amplitude (10 s on, 30 s off, 6 cycles). The crude lysate was cleared by centrifugation (15,000 r.p.m., 4 °C, 20 min). […] The resin was centrifuged at 3,000 r.p.m. for 5 min, and the supernatant containing the cleaved protein was collected and protein concentration was determined using the Bradford assay (Thermo Scientific, Rockford, IL). Protein purity was assessed by running SDS–PAGE and Coomassie Blue staining.
The DNA fragments were cloned into pGEX-2T GST expression vector (GE Healthcare, Waukesha, WI). […] Protein concentration was then determined using Bradford assay and protein purity was assessed by SDS–PAGE and Coomassie Blue staining. […]

B1: CARM1 140–608: CARM1 140–608 lacks the first 140 residues encompassing the EVH1 domain (protein)
chain: RTEESSAVQYFQFYGYLSQQQNMMQDYVRTGTYQRAILQNHTDFKDKIVLDVGCGSGILSFFAAQAGARKIYAVEASTMAQHAEVLVKSNNLTDRIVVIPGKVEEVSLPEQVDIIISEPMGYMLFNERMLESYLHAKKYLKPSGNMFPTIGDVHLAPFTDEQLYMEQFTKANFWYQPSFHGVDLSALRGAAVDEYFRQPVVDTFDIRILMAKSVKYTVNFLEAKEGDLHRIEIPFKFHMLHSGLVHGLAFWFDVAFIGSIMTVWLSTAPTEPLTHWYQVRCLFQSPLFAKAGDTLSGTCLLIANKRQSYDISIVAQVDQTGSKSSNLLDLKNPFFRYTGTTPSPPPGSHYTSPSENMWNTGSTYNLSSGMAVAGMPTAYDLSSVIASGSSVGHNNLIPLANTGIVNHTHSRMGSIMSTGIVQGSSGAQGSGGGSTSAHYAVNSQFTMGGPAISMASPMSIPTNTMHYGS
modifications: left off: FLAG, end not stated, kept
notes: CARM1 140–608 lacks the first 140 residues encompassing the EVH1 domain
[1]
  Co-precipitation of BAF155, MED12, PABP1, NCOA3 and TET2: substantially lower amounts of them were detected
[2]
  Methylation of GST fused MED12, BAF155 and PABP1 peptides and other protein substrates: greatly reduced ability
